Measurements as given in the DeepSol protein solubility set.

Test: soluble on expression in E. coli; label from the status in PepcDB or PDB records

Sequence	soluble on expression in E. coli
MGSDKIHHHHHHMSRAITRAQLDKLVRSITKFYPQKYADKSWDNTGLLIDCSTAQVTTADANAKTKVLLTVDLTKSVAQEAVDANCNVIVAYHPFIFPSWNRLSPHTNPQHETAIKLIQYGISVYCPHTAVDAARGGVNDWLVRGLNNGENVAKSYALETVSGETDDLIGYGRFVEFNKDISLEQIVKNVKRVLRVPYVQVASLAAPSAWNQLKIKKVAVCAGSGSGVFKQLKEDVDLYYTGEMSHHEVLKWKEMGKTVIVCNHSNTERGFLQDVMKGLLQDEGHEVVVSKMDCDPLTVA	not soluble
MGSDKIHHHHHHMSRQEQTPLFSGVVAHAKHNPVQFHIPGHKKGAGMDPAFRSFIGDNALSIDLINIGPLDDLHHPHGIIKEAQELAAEAFGADHTFFSVQGTSGAIMTMIMSVVGPGEKIIVPRNVHKSIMSAIVFSGATPVFIHPEIDPLLGISHGITIEAVEKALDAHPDAKGLLVINPTYFGIAANLKKIVELCHSRDVPVLVDEAHGVHIHFHEALPLSAMQAGADMAATSVHKLGGSLTQSSILNVREGLVSAKRVQTIISMLTTTSTSYLLLASLDAARKHLATNGRDLIGYTIQLADQARDQINAIDGLYCVGKEILGTIATYDYDPTKLIISVKNLGITGYDAEVWLREHYQIEVELSDLYNILCIVSFGDTEREMDLLVKALSELADLHKHGICERSPVSVYVPNIPTLAMSPRDAFYAETEVVPFEDSVGRTIAEFIMVYPPGIPILIPGEIITESNLAYIRENNRAGLPVQGPEDDTFRTLRVIKEHEAIR	not soluble
MGSDKIHHHHHHMSSAQVNGISKRLIVESPNVKLEDGVLESRFTYRKNHFEHRADGLHVTPKEHDYSFKTVLKPRKTGLLLVGLGGNNGSTAVGSIFANQYAMTWRTKEGHSQANYFGSVTQTATVHLGYDSATQNQIFVPFKDIVPILSPNDLIISGWDISDSNLYEAMGRAKVFEPELQEKLRPFMEPIVPLPSIYYPDFIASNQGDRANNVIPGDNKLEHLEHIRADIRKFKQEHELECVIVLWTANTERYTDVRQGLNATADEIMESIRVNEDEVSPSNIFAVASILEGAHYINGSPQNTLVPGLIELAERHKVFVGGDDFKSGQTKFKSAFVDFLVSSGMKPESIVSYNHLGNNDGKNLSEARQFRSKEISKSSVVDDMVKSNQILFPDAKNPDYCVVIKYVPYVADSKRAMDEYICSIFMGGKQTFVVHNTCEDSLLASPLIYDLAILTELASRVSYKVDDEYKPFHSVLSILSLLLKAPVVPPGTPISNAFMRQFSTLTKLVTALAGFPSDTDMQIEFFTQLPAAKSKSQ	soluble
MGSDKIHHHHHHMSSCEIFPLISKLSAEGKRFAIVSIYKGNRLERTIVSDGRVLLGSLDRNIIEIALEALEKGKVIQKDLEDGKLVIEPIEPRPAIIVVGSGIIARFLAKLAIDMGYYVAVVGSGDVKEEDFSGVYAISNDLNLLEQMVSEDSIVIVANEGGKPYDIDALYIAMKKRARFVGLLASQKRAALMISLLVKRDIPLEEIKRRLHSPLGLDIGSKTAEEIALSILSEVVLDLRGGTGKRLQEVKNPYLLLDDALAGKIEDKCMFVPKSLSQQ	not soluble
MGSDKIHHHHHHMSSRNRIIWREGLFIKPQHFQQQQRHTDYALHARLSALSDYFYGLQSLAINEEYLNFGRIALVNASGVMPDGTVFNIPGDDALPLPLEITDVALANQKVYLALPLAVNGVSEVGQPGQGIASRLQSHRHDVRDLHSDGGDIVSLEVGKVSLRLMLDRDDRSAYASLAIANILDKRPDGGLILDPNFMPCSISVTAIPTLKRFLGESAGLVAERARSLAQRIAAPGQQGVADVAEFMMLQLLNRAQPKLSHLARLGTLHPERLHETLVELCGELMTFTDESRLPPEFPAYRHEHQQASFEPLMMALRQALSTVLSPRAVSIQLKKQPYGVMVAMVGDAELMTSAEFVLAVRARMPQEHLRKQLLQQTKIASSEKIRELISLQLPGIPLLPLPVAPRQLPYHAGYSYFQLDRQSPAWQVLVSGNTLAFHIAGEFPELDMQLWAIRGQ	not soluble
MGSDKIHHHHHHMSTAKTLTLEMHLGDLMIGELSFDATADTFAVHYTKDWQQSGFPLSPTIPLDGTGTSNQISMFLVNLLPENKGLDYLIESLGVSKGNTFALIRAIGLDTAGAIAFVPKGALLPETQLRPIKAEEVIQRIEDPTMWPMEIWDGKPRLSVAGVQPKLNLFYNGKEFAFAEGTLSSTHIVKFEKYHHLVINEFITMRLAKVLGMNVANVDIVHFGRYKALCVERFDRRNIPGEQRVLRRHIVDSCQALGFSVSKKYERNFGTGRDVKDIREGVSFNRLFSLAAKCRNPVAAKQDMLQWALFNLLTGNADAHGKNYSFFMTPSGMEPTPWYDLVSVDMYEDFEQQLAMAIDDEFDPNSIYAYQLAAFMDGLGLPRNLLISNLTRIARRIPQAIAEVILMLPPLDEDEASFVAHYKTQLLARCERYLGFVDEVRDVEV	not soluble
MGSDKIHHHHHHMSTLENVHASPIHFMSKPAEIEHTQRPLNEASHAPGYIYGDPDVLRREKERIFMKDWLCIAHVDELPNPGDFVTHTVIDEPVLIVRNRSGVLQAFYNQCRHRGVEVAEGRGNAKIFKCPYHAWSYDLDGKLIGVPFMKEAQGFDQKNCSLKPVRLDTWGGFIHISFDPDAEPLSSYMAEYEQEFGMLRQGELRLGLRWETDFDCNWKFVYENLMDIYHVGVTHADTIGRYQDQSSYRYLQLPRGRASIHYRAKTMSETGSSLFGRLPWIDDDSFARIGYLPPNLTMLARCDYVRPVTHWPTAVNRTHSVAYFLFPEDKIADPQFQEKIQTYVKFVEQVLDEDRGMILSLQRAMNTRGFEPGRMSFMENAIHHALGYHLERLFGPQSA	not soluble
MGSDKIHHHHHHMSTNPSLPWHAGELALQARVGVAAKMEDVGRRVMRDYMPDQHREFFAQMPFVVLGTVAPDGRVWATLRAGRPGFLQSPDARILELRLPREAADPADAGMEDGQPLGLLGIDLMTRRRNRMNGVLRRADRDGADLRIDVVQSFGNCPRYIQQRAFRFTRDPSEQTTIAPLAMGALDSRARALIASADAFFVASYADRPEAGRQVDVSHRGGEPGFVRIDADGGLTIPDFAGNLFFNTLGNFMVNPAAGVTFADFDTGELLQMSGRVEVIVDSPEIAAFQGAERLWRFFPEKIVRREAALPMRWARAGDAADE	not soluble
MGSDKIHHHHHHMSTQTSIEWTEMTWNPIVGCTKVSPGCKHCYAENMAHRLQAMGTPGYENGFKLSLRPEKLREPLQRKKPTIYFVNSMSDLFHEKVPDHYIDQVFEVIREATQHTFQILTKRAERLADYFSKRTPPTNAWLGVSVEDKAYGVPRIDCLRRVNATIRFLSAEPLLEDLGEIDLTDIHWVIVGGESGNKARPMQQEWVDNIHRQCDVSGSAFFFKQWGGWGADGVKRSKKANGRLLNGQTWDEIPLLNLA	not soluble
MGSDKIHHHHHHMSVMETTHRQYRQTLIFGLIRIVEELFPQEEIKIQYSILDGIYCELENSPLSPREVAQIEEKLHHWLESKPKIMSCAEEDGFFHTKVNHIFVKSLYPAMHPADTYYPFTLIFYHPGFILLFSNPEHPCELPNFVPPEKLAATFLESQRWVENLHLDKVGSINLNIRKGKTTELISLAEALHEKKISLIADRILEQRRNLRIILISGPSSSGKTTFAQRLSTQLQVNGIRPIALSLDNYFCDREHTPLDEYGQYDFEALEALDLPLLNQHVKALIHGEEIECPIFDFVAGRRQPEGIRMKLEPDEILVMEGIHALNPRLLPSLERSHLFKIYISALFQPNIDTHNRISTTDVRLIRRLVRDDKYRGINPEKTLNQWSSVRRGENNNIFPYQEEADVMFNSSLLYELNALKAYAEPLLISIPKDHPYYATASHLLRVLYHFEILDIAKVPFNSILREFIGGGIY	not soluble
MGSDKIHHHHHHMSVTSTTSQNSLFDVIVIGSGIGGLVTATQLAAKGAKVLVLESYIIPGGSAGYFERQGYRFDVGASMIFGLGNRGTTNLLTRALQAVNSSVEAIADPVQIHYHLPSNLNLKVDRVYDKFLQNLAAYFPHETKGIRRFYDECWQVFKCLNRMDLLSLEEPRYLLRTFLQHPLACLGLLKYLPQNVGDIARRYIRDPELLKFIDIECYCWSVVPAAMTPMINAGMVFSDRHYGGVNYPKGGVGQIAQKLAEGLEKVGGEIRYQAKVAKIITEKYRAVGVQLTNGEIYRSKRIVSNATRWDTFEKLLPVDKMPSNEKDWQHSYKKSPSFLSLHMGVKESVLPQGTECHHIILEDWQNMTQAEGTLFVSIPTLLDPELAPEGCHIIHAFTPHWINDWQGFSVSDYEAKKEETAWRIIDRLEKIFPGLDAGLDYLEVGTPRTHRRFLGREDGTYGPIPRRKLRGLLSMPFNRTAIKGLYCVGDSTFPGQGLNAVAFSGFACAHRIAVDLGL	not soluble
MGSDKIHHHHHHMSWKLSIIRLLNKSLVPNQQRALVVFTVLLLCACGKAKIPFSPITVSQTPVTTAQFTDDIDTVSTLEAKEEVHLAAQASGRIIELKIDQGDQVQPGQMLVVLDQAQIRAELADFKAQEQKNKLNWQRYEFLVPQGAASALDRDEYKAQYIASREKVKATEATLAYSNLRSPISGIVADVDVKVGDVIRSGDPFTKLIRNNRLFARVEVPATFSDRIKIGLPVFLNKTGSSDVMATGEINSVGPTVNRTTQGLLVKAAFENANGSLRNGQRLRTRVQLDTREELSVPFAAVTQTSGQSFVYRVGSFQELEDFSGNISLDKLRKLPPSTRFALQTPVTLGKLQKQRYAVTKGLKLGEQVITTNLLKLRHGMPISVKN	not soluble
MGSDKIHHHHHHMTAPHTETDSTQQFLDSMPELKPGEKFQFACHPGVACFNACCSDLTMPLSPYDVLRLRQETGQDSEGFISTFARVETYPDTNFPILYMKMTDGPVRPCPFVSQAGCQVYPNRPAACRTYPLGRGTRVDAQGRLVEQYFIIAEQHCHGFAEEPVWTSEEWLQDQGLARYNYFGDRYTRLMGRAMETGLVLTQKQLTLCLLALYEADRFGAFISGVNLFARLNVSAQEQARILEDEEARLEFGFDWTELVLFGDNERLQVVNP	not soluble
MGSDKIHHHHHHMTAQNGQDVWHEDILDDSAIAVLSYPIGEMQRDQLHSHGYHQIAMCEQPGATLLLGSQVVSIPWNGALLVPSGTDHALTSETRCVIRCIYFKAALPSTSIGSLFLNRLTKELIKEISTSYVTERSRRLMEACLYDQIGQLLWSSGSGMMPPSRSLRVICKHIFDTPEDDTPVATLAKDAGLSERSLRRLARDELGCTISQIRTRCRIYKATQLLQAGVPVKLIAADVGYQSNSAFFSAFREIMGMSPARFQAECAASRSLSHLRLK	not soluble
MGSDKIHHHHHHMTEEKESLAGRQWLVDKVDNSIKEGQTAIPAIENGICQRCGSSCWVRLPSGFLYCRACVGLGRLDEGKLLVRQAAGSHYPARAGMTWTGQLQERQEGVSRFLLEKFAAKEDCLVEAVTGAGKTEMIFPLLAEAFSCGCRVAIATPRIDVVNELYPRLVAAFGEVEIGKYHGREEKEAANEQLVICTTHQLLKYYQAFDLLIIDEIDSFPYAGNPQLHFAAGNAVKKTGSQVFLTATPPEDLLKAARQGKLAIVRLNRRFHCYPLPVPRLDLYVKPFLTKGRLHPKLARRIKMAAKSGHPLLVFLPRIAQMPQYFAAVKRLLPDLRLATVYAQDPDRLEKVEKFRKGDLDLLLTTTILEGGVTLSMSG	not soluble
MGSDKIHHHHHHMTEQVMNKHQLETGLSILGAPVPGQEIVLNEGALSLLEVLCDQFAAEVPKLLEMRRQKQELIDKGSLPDFLPETRAIRDGDWQIRGIPQDLQDRRVEITGPVDRKMIINALNANVKVFMADFEDSLAPSWIKVIQGQINLRDAVRGEIEYTAPETGKHYTLDDDPAVLIARVRGLHLKEKHVAFNGEAIPGALFDFCLYFYHNYRQLLEKGSGPYFYIPKLESHVEARWWAKVFAYVEERFCLTPGTIKCTCLIETLPAVFEMEEILYELRSNIVALNCGRWDYIFSYIKTLKKHSDRILPDRQAVTMDKPFLSAYSRLLIKTCHKRGALAMGGMAAFIPAKDQAQNEAVLVKVRGDKELEARNGHDGTWVAHPGLADTAMGIFNEYIGEDHVNQLHITRDVDAPILARDLLMPCEGERTESGMRLNIRIALQYIEAWIRGNGCVPIYGLMEDAATAEISRTSIWQWIQHEQKLSNGKLVTKALFKEMLVEELANVKLEVGPDRFTHGSFTQAAVLLEEITTADELVDFLTLPGYEILTQGDNA	not soluble
